Biological target: fluorescent tagged eIF4E-3 (Drosophila melanogaster)
Assay: FRET or BRET

B1: fluorescent tagged Me31B (FRET partner of eIF4E-3) (natural protein)
chain: MMTEKLNSGHTNLTSKGIINDLQIAGNTSDDMGWKSKLKLPPKDNRFKTTDVTDTRGNEFEEFCLKRELLMGIFEKGWERPSPIQEAAIPIALSGKDVLARAKNGTGKTGAYCIPVLEQIDPTKDYIQALVMVPTRELALQTSQICIELAKHLDIRVMVTTGGTILKDDILRIYQKVQLIIATPGRILDLMDKKVADMSHCRILVLDEADKLLSLDFQGMLDHVILKLPKDPQILLFSATFPLTVKNFMEKHLREPYEINLMEELTLKGVTQYYAFVQERQKVHCLNTLFSKLQINQSIIFCNSTQRVELLAKKITELGYCCYYIHAKMAQAHRNRVFHDFRQGLCRNLVCSDLFTRGIDVQAVNVVINFDFPRMAETYLHRIGRSGRFGHLGIAINLITYEDRFDLHRIEKELGTEIKPIPKVIDPALYVANVGASVGDTCNNSDLNNSANEEGNVSK
FRET efficiency: 25%

— doi:10.1101/2021.03.23.436655
